Reference: paper PMC7545097, “Mapping the native interaction surfaces of PREP1 with PBX1 by cross-linking mass-spectrometry and mutagenesis” (Scientific Reports, 2020)
Where a chain is given by its changes, count along the chain named.

T1: PBX1 Δ105-113 (human, UniProt P40424 1-430, Δ105-113)
T1 construct: PBX1, residues 1-430, with an internal deletion; source: E. coli, purified
T1 sequence (looked up): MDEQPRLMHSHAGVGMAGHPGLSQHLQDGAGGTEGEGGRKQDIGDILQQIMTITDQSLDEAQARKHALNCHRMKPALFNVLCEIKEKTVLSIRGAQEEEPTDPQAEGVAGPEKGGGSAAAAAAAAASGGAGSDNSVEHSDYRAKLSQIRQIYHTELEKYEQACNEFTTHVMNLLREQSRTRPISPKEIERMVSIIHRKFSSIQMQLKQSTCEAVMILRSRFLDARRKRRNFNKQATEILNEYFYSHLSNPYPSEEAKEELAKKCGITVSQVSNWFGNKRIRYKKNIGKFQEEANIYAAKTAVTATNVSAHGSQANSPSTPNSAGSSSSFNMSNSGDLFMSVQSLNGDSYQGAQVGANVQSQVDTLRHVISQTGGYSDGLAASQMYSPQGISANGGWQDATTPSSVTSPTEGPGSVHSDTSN

T2: PREP1 L69A (UniProt P55347 1-436, L69A)
T2 construct: PREP1 (PKNOX1), residues 1-436
T2 sequence (looked up): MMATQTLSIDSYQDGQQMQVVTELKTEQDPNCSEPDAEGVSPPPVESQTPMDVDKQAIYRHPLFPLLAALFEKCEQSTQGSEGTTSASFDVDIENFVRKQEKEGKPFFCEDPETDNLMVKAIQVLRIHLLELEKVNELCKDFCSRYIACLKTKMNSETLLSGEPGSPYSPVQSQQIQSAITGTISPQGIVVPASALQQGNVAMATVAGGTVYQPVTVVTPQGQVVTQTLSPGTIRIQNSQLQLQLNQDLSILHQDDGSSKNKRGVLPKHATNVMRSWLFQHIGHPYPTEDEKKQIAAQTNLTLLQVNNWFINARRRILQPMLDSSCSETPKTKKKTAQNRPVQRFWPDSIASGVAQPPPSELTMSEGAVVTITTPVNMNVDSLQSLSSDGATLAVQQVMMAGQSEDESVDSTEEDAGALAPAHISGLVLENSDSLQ

B1: PREP1_(1-436), wild-type recombinant (TR-FIA) (natural protein, UniProt P55347 1-436, looked up)
chain: T2 sequence (looked up) with A69L
notes: also called wild-type PREP1; PKNOX1; source: E. coli, purified
B2: PBX1_(1-430), wild-type recombinant (natural protein, human, UniProt P40424 1-430, looked up)
chain: MDEQPRLMHSHAGVGMAGHPGLSQHLQDGAGGTEGEGGRKQDIGDILQQIMTITDQSLDEAQARKHALNCHRMKPALFNVLCEIKEKTVLSIRGAQEEEPTDPQLMRLDNMLLAEGVAGPEKGGGSAAAAAAAAASGGAGSDNSVEHSDYRAKLSQIRQIYHTELEKYEQACNEFTTHVMNLLREQSRTRPISPKEIERMVSIIHRKFSSIQMQLKQSTCEAVMILRSRFLDARRKRRNFNKQATEILNEYFYSHLSNPYPSEEAKEELAKKCGITVSQVSNWFGNKRIRYKKNIGKFQEEANIYAAKTAVTATNVSAHGSQANSPSTPNSAGSSSSFNMSNSGDLFMSVQSLNGDSYQGAQVGANVQSQVDTLRHVISQTGGYSDGLAASQMYSPQGISANGGWQDATTPSSVTSPTEGPGSVHSDTSN
notes: also called wild-type PBX1; purified recombinant human PBX1; source: E. coli, purified

Key:
Experiment in all cases: time-resolved fluorescence immunoassay (TR-FIA); plate coated with monoclonal anti-PBX1; PBX1 pre-incubated with PREP1 or MEIS1 for 1 h on ice, 10 µg/mL in 1% BSA PBS, 1 h at room temperature on the plate; detected with anti-PREP1 or biotinylated anti-MEIS1/2 and Eu^3+ conjugates; normalised to the wild-type protein taken as 1
PBX1 Δ105-113 = target: T1, PBX1 Δ105-113; conditions: both partners purified
[1] = target: single mutations of most hydrophobic residues (V80, L81 and I84) of PBX1
PBX1Δ197-204 (human) = PBX1Δ197-204 (human) (UniProt P40424)
[2] = target: double or triple mutants (L77A/V80A, L77A/I84A, V80A/L81A, L77A/V80A/L81A) of PBX1
PREP1 L69A = target: T2, PREP1 L69A; conditions: both partners purified

Binder | binding relative to wild type (PBX1 Δ105-113) | binding relative to wild type [1] | binding relative to wild type (PBX1Δ197-204 (human)) | binding relative to wild type [2] | binding result (PREP1 L69A)
B1 | 75% | 40 to 60% | 65% | 30 to 40% | 
B2 |  |  |  |  | binds
